In paper PMC12455010:

B1: rat Kv3.4 (rKv3.4): N257Q (protein)
parent chain: MISSVCVSSYRGRKSGNKPPSKTCLKEEMAKGEASEKIIINVGGTRHETYRSTLRTLPGTRLAWLADPDGGGRPESDGGGAGSSGSSGGGGGCEFFFDRHPGVFAYVLNYYRTGKLHCPADVCGPLFEEELTFWGIDETDVEPCCWMTYRQHRDAEEALDIFESPDGGGGGAGPGDEAGDDERELALQRLGPHEGGSGPGAGSGGCRGWQPRMWALFEDPYSSRAARVVAFASLFFILVSITTFCLETHEAFNIDRNVTEIHRVGNITSVRFRREVETEPILTYIEGVCVMWFTLEFLVRIVCCPDTLDFVKNLLNIIDFVAILPFYLEVGLSGLSSKAARDVLGFLRVVRFVRILRIFKLTRHFVGLRVLGHTLRASTNEFLLLIIFLALGVLIFATMIYYAERIGARPSDPRGNDHTDFKNIPIGFWWAVVTMTTLGYGDMYPKTWSGMLVGALCALAGVLTIAMPVPVIVNNFGMYYSLAMAKQKLPKKRKKHVPRPPQLESPIYCKSEETSPRDSTYSDTSPPAREEGMVERKRADSKQNGDANAVLSDEEGAGLTQPLASAPTPEERRALRRSGTRDRNKKAAACFLLSAGDYACADGSVQKEGSVEPKACVPVSHTCAL
B2: rat Kv3.4 (rKv3.4): N266Q (protein)
parent chain: B1 parent chain

How the values were obtained:
Conditions in all cases: glycan lost; control: wild type
[1] = whole-cell patch clamp in CHO
[2] = cell surface biotinylation, western blot
[3] = automated whole-cell patch clamp, inactivation width at +80 mV

| Protein | other: channel current [1] | localisation_or_trafficking [2] | other: channel inactivation delay and its heterogeneity [3] |
| --- | --- | --- | --- |
| B1 | decreases | no change | decreases |
| B2 | decreases | no change | decreases |
